The record followed here is patent US20250205280A1 (Janssen / Centocor, published 2025).

The target in experiment [1] is T1, IL1RAP on H1975 cells (human, UniProt Q9NPH3 21-570).
T1 construct: whole, on cells; also called ILIRAP; H1975 tumor cell line expressing ILIRAP
T1 sequence (looked up): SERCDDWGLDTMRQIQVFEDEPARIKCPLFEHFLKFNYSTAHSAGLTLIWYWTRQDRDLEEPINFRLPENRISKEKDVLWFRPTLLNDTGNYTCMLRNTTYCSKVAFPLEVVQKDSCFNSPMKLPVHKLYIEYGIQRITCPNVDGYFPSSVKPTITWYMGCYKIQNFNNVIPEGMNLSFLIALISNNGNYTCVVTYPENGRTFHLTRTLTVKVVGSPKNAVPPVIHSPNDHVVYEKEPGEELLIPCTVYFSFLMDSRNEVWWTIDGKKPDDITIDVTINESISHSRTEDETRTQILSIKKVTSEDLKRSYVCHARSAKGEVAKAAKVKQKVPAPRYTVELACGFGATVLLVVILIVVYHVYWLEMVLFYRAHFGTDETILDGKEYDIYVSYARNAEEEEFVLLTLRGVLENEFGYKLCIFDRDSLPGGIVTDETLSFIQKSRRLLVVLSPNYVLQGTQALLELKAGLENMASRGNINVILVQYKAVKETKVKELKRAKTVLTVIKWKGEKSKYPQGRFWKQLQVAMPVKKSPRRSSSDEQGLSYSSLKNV
Kind of experiment: flow cytometry on H1975 cells, % binding; top right panel. A general note: A flow cytometer gives signals particle by particle.

Experiment [2] deals with T2, Vβ17 (TRBV19) T cell receptor on Vβ17+CD8+ T cells (human).
T2 construct: whole, on cells; also called Vβ17+ T cells
Kind of experiment: flow cytometry on total (Vβ17 non-depleted) CD8+ T cells from PBMCs, % binding. The protocol: (§1) Binding of Vβ17 bispecific antibodies to its respective tumor associated antigen (TAA) expressing cell line and CD8+ T cells was carried out by flow cytometry. Briefly, 50,000 target cells or CD8+ T cells were incubated at 4° C. for 45 minutes with serial dilutions of various bispecific antibodies or its null arm control bispecific antibodies. After washing with wash buffer (PBS+2% FBS), bispecific antibody bound to cell surface was detected by incubating the cells with PE labelled mouse anti human IgG4 secondary antibody (SouthernBiotech, Birmingham, AL) for 30 minutes at 4° C. Cells were washed with wash buffer (PBS+2% FBS) and the fluorescence of stained cells was measured on Novocyte flow cytometer. Cells were visualized on forward and sideward scatter and doublets were excluded. No secondary antibody control was used to establish background fluorescence and to gate on specific population. Background value was subtracted from main samples to get specific binding value. […] For all binding assays, tumor associated antigen (TAA) expression on cell lines and the abundance of Vβ17+ cells among Pan-T cells or CD8+ T cells were assessed by staining them with specific monoclonal antibody.

The target in experiment [3] is T2, Vβ17 (TRBV19) T cell receptor on …. Kind of experiment: flow cytometry on M1 peptide expanded CD8+ T cells, PE anti-human IgG4 secondary, % binding; bottom middle panel, second EC50 line, square curve (right of the circles). The protocol:
as §1
(§2) Mouse anti-human IgG4 Fc-PE secondary antibody was used to detect the bispecific antibody using FACS method.

Experiment [4] shares this target. Kind of experiment: flow cytometry on M1 peptide expanded CD8+ T cells, PE anti-human IgG4 secondary, % binding; bottom left panel, second EC50 line, square curve (right of the circles). The protocol:
as §1, §2

In another experiment the target is T3, PSMA on 22Rv1 cells (human, UniProt Q04609 1-750).
T3 construct: whole, on cells; also called 22Rv1 tumor cell line expressing PSMA
Kind of experiment: flow cytometry on 22Rv1 cells, % binding; top middle panel.

In another experiment the target is T4, CD123 on Kasumi-3 cells (UniProt P26951 19-378, limits assumed).
T4 construct: whole, on cells; also called tumor associated antigen (TAA) on Kasumi-3
Kind of experiment: flow cytometry on Kasumi-3 cells, % binding; top left panel.

Experiment [5] concerns the target T2, Vβ17 (TRBV19) T cell receptor on …. Kind of experiment: flow cytometry on M1 peptide expanded CD8+ T cells, PE anti-human IgG4 secondary, % binding; bottom right panel, second EC50 line, square curve (right of the circles). As to the method: as §1, §2
In experiment [6] the target is T1, IL1RAP on H1975 cells. Kind of experiment: flow cytometry on H1975 cells expressing IL1RAP, detected with anti-human IgG4 Fc-PE. As to the method: as §1
For experiment [7], the target named is T2, Vβ17 (TRBV19) T cell receptor on …. Kind of experiment: flow cytometry on M1 peptide expanded CD8+ T cells, PE anti-human IgG4 secondary, % binding; bottom right panel, first EC50 line, circle curve (left of the squares). The protocol:
as §1, §2

Experiment [8] shares this target. Kind of experiment: flow cytometry on enriched M1 peptide-stimulated CD8+ T cells (day 14), frequency of positive cells, anti-human IgG4 Fc-PE. The protocol:
as §1, §2

T2 sequence (A0A075B6N1 22-114): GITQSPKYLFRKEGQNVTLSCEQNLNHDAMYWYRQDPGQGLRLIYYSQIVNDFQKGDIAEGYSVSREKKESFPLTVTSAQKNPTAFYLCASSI
T4 sequence (P26951 19-378 limits assumed): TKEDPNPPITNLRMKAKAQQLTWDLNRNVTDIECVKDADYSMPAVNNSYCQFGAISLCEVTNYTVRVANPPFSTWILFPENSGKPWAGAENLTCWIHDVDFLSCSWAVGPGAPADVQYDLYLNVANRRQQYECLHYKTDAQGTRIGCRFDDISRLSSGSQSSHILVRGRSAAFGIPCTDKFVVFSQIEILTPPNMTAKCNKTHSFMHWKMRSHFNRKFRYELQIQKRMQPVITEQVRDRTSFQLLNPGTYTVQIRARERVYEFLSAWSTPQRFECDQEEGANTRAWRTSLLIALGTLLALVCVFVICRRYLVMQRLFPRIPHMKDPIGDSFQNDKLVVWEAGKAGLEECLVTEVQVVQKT
T3 sequence (Q04609 whole entry): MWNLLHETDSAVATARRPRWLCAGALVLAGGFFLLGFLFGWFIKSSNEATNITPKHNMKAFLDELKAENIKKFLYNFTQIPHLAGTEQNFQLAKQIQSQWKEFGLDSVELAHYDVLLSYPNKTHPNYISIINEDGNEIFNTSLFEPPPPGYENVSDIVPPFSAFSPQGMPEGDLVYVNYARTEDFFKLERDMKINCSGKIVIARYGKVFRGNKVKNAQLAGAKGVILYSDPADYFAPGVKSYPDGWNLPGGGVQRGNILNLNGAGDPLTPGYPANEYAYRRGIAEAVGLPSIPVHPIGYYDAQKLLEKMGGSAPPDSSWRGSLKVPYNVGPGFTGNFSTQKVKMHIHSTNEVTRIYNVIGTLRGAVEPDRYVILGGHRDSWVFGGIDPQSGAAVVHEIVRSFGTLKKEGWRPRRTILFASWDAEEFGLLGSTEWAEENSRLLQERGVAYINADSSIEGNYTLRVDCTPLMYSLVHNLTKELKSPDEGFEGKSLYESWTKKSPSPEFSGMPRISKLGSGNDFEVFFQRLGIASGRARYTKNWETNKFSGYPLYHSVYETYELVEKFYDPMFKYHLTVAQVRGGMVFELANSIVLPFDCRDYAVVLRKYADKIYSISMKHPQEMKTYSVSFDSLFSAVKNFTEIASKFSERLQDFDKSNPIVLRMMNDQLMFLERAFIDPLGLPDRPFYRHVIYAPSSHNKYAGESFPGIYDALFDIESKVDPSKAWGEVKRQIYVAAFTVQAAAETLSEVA

B1: Vβ17/Null (bispecific antibody, human IgG4 S228P, kappa, F234A L235A)
Vβ17 half antibody (B17B21; light chain, linker and heavy chain in one polypeptide): DIQMTQSPSSLSASVGDRVTITCRSSQSLVHSNGNTYLHWYQQKPGKAPKFLIYKVSNRFSGVPSRFSGSGSGTDFTLTISSLQPEDFATYYCSQSTHVPFTFGQGTKLEIKRTVAAPSVFIFPPSDEQLKSGTASVVCLLNNFYPREAKVQWKVDNALQSGNSQESVTEQDSKDSTYSLSSTLTLSKADYEKHKVYACEVTHQGLSSPVTKSFNRGECGGSEGKSSGSGSESKSTEGKSSGSGSESKSTGGSQVQLQESGPGLVKPSETLSLTCTVSGYSITSGYFWNWIRQPPGKGLEWIGYISYDGSNNYNPSLKSRVTISRDTSKNQFSLKLSSVTAADTAVYYCASPSPGTGYAVDYWGQGTLVTVSSASTKGPSVFPLAPCSRSTSESTAALGCLVKDYFPEPVTVSWNSGALTSGVHTFPAVLQSSGLYSLSSVVTVPSSSLGTKTYTCNVDHKPSNTKVDKRVESKYGPPCPPCPAPEAAGGPSVFLFPPKPKDTLMISRTPEVTCVVVDVSQEDPEVQFNWYVDGVEVHNAKTKPREEQFNSTYRVVSVLTVLHQDWLNGKEYKCKVSNKGLPSSIEKTISKAKGQPREPQVYTLPPSQEEMTKNQVSLSCAVKGFYPSDIAVEWESNGQPENNYKTTPPVLDSDGSFFLVSRLTVDKSRWQEGNVFSCSVMHEALHNRFTQKSLSLSLGK
null half antibody (B23B49; light chain, linker and heavy chain in one polypeptide): not shown
notes: also called Vβ17/NULL arm control bispecific antibody; Vβ17XNULL
With B1, the values for the binding result in the experiment with IL1RAP on H1975 cells [1], with PSMA on 22Rv1 cells and with CD123 on Kasumi-3 cells were “no binding (tested: about 30 µg/mL)”, “no binding (tested: 10 µg/mL)” and “no binding (tested: about 5 µg/mL)”, respectively. The 50% effective concentration (EC50 (read off the curve)) (usually the midpoint of the concentration-response curve) in experiment [2] is around 0.3 mg/L. Also, the EC50 (commonly the concentration that produces a half-maximal response) in experiment [3] is 3.75 nM; in [4], 2.4 nM; in experiment [5], 2.8 nM.

B2: Vβ17/IL1RAP bispecific antibody (bispecific antibody, human IgG4 S228P, kappa, lambda, F234A L235A)
chain 1: B1 Vβ17 half antibody (B17B21; light chain, linker and heavy chain in one polypeptide)
chain 2: QSALTQPRSVSGSPGHSVTISCTGTSSDVGDYNYVSWYQQRPGKVPKLLIYDVSKRPSGVPDRFSGSKSGNTASLTISGLQAEDEAIYFCASYAGNYNVVFGGGTKLTVLGQPKAAPSVTLFPPSSEELQANKATLVCLISDFYPGAVTVAWKADSSPVKAGVETTTPSKQSNNKYAASSYLSLTPEQWKSHRSYSCQVTHEGSTVEKTVAPTECSGGSEGKSSGSGSESKSTEGKSSGSGSESKSTGGSQVQLVQSGSELKKPGASVKVSCKASGYTFNTYAMNWVRQAPGQGLEWMGWINTNTGNPTYAQGFTGRFVFSLDTSVSTAYLQISSLKAEDTAVYYCARRYFDWLLGAFDIWGQGTMVTVSSASTKGPSVFPLAPCSRSTSESTAALGCLVKDYFPEPVTVSWNSGALTSGVHTFPAVLQSSGLYSLSSVVTVPSSSLGTKTYTCNVDHKPSNTKVDKRVESKYGPPCPPCPAPEAAGGPSVFLFPPKPKDTLMISRTPEVTCVVVDVSQEDPEVQFNWYVDGVEVHNAKTKPREEQFNSTYRVVSVLTVLHQDWLNGKEYKCKVSNKGLPSSIEKTISKAKGQPREPQVYTLPPSQEEMTKNQVSLWCLVKGFYPSDIAVEWESNGQPENNYKTTPPVLDSDGSFFLYSRLTVDKSRWQEGNVFSCSVMHEALHNHYTQKSLSLSLGK
notes: also called Vβ17XIL1RAP
On to B2, for which the half-maximal effective concentration (EC50) in the experiment with IL1RAP on H1975 cells [6] is 11.3 nM; in experiment [7] it was 0.33 nM; in experiment [8], 2.8 nM.
